Results taken from US20180230213A1 (AVEO PHARMACEUTICALS, published 2018).

How the values were obtained:
[1] = molecular target: T1, recombinant human Notch3 extracellular domain (containing EGF like domains 1-11) Fc fusion protein (human, UniProt Q9UM47 40-467); assay: SPR Biacore T100, 4F11 captured by anti-mouse IgG, rhNotch3-Fc analyte, 25 C
T1 construct: domain: EGF like domains 1-11; also called rhNotch3-Fc; rhNotch3
T1 sequence (looked up): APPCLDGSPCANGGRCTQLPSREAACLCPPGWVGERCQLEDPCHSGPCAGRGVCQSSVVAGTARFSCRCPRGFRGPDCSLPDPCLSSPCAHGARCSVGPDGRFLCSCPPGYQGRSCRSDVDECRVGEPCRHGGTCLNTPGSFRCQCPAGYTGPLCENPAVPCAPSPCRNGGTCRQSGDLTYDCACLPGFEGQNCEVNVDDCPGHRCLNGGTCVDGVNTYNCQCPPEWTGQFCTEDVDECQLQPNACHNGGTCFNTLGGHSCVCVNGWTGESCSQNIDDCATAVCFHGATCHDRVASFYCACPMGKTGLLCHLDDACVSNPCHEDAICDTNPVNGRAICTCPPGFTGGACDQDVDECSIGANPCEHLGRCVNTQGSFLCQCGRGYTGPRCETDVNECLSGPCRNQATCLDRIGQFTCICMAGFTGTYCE
Procedure: The binding affinity and kinetics of binding of antibody 4F11 to recombinant human Notch3 extracellular domain (containing EGF like domains 1-11) Fc fusion protein (rhNotch3-Fc (R&D Systems, Inc., Minneapolis, Minn.)) were measured by surface plasmon resonance using a Biacore® T100 instrument (GE Healthcare, Piscataway, N.J.).
Rabbit anti-mouse IgGs (GE Healthcare) were immobilized on carboxymethylated dextran CM4 sensor chips (GE Healthcare) by amine coupling, according to a standard protocol. Analyses were performed at 25° C. and 37° C. using PBS containing 0.05% surfactant P20 as running buffer. The antibody was captured in individual flow cells at a flow rate of 10 μl/minute. Injection time was varied for each antibody to yield an Rmax between 30 and 60 resonance units (RU). Buffer or rhNotch3-Fc diluted in running buffer was injected sequentially over a reference surface (no antibody captured) and the active surface (antibody to be tested) for 240 seconds at 60 μl/minute. The dissociation phase was monitored for up to 1500 seconds. The surface was then regenerated with two 60-second injections of 10 mM Glycine-HCl, pH 2.25, at a flow rate of 30 μl/minute. The rhNotch3-Fc concentration range tested was 100 nM to 3.125 nM (2 fold dilution).
Kinetic parameters were determined using the kinetic function of the BIAevaluation software (GE Healthcare) with double reference subtraction. Kinetic parameters for the antibody, kₐ (association rate constant), kd (dissociation rate constant) and KD (equilibrium dissociation constant) were determined.

[2] = molecular target: T2, rhNotch1-Fc (human, UniProt P46531 19-526); assay: BLI (Octet QK): rhNotch1-Fc loaded on anti-human-Fc sensors, then antibody 4F11 in solution
T2 construct: also called human Notch1 protein; R&D Cat. No. 3647-TK-050
Procedure: (§1) Antibody 4F11 was tested for binding to human Notch1, human Notch2, or human Notch3 proteins. Binding measurements were made by biolayer interferometry (BLI), using a FortéBio Octet® QK instrument (FortéBio, Menlo Park, Calif.). Anti-human-Fc sensors were soaked in PBS containing 1 mg/ml BSA for five minutes prior to binding of antibodies. Then the following proteins (400 nM, in PBS containing 1 mg/ml BSA) were allowed to bind to the sensors: rhNotch1-Fc (R&D Systems, Minneapolis, Minn.; Cat. No. 3647-TK-050), rhNotch2-Fc (R&D Cat. No. 3735-NT-050), rhNotch3-Fc (R&D Cat. No. 1559-NT-050), or rmNotch3-Fc (R&D Cat. No. 1308-NT-050). Notch protein bound sensors were immersed in antibody solution (50 μg/ml) to allow binding of antibody to the Notch protein. Binding was detected by shifts in the interference pattern.

[3] = molecular target: T3, rhNotch2-Fc (human, UniProt Q04721 26-530); assay: BLI (Octet QK): rhNotch2-Fc loaded on anti-human-Fc sensors, then antibody 4F11 in solution
T3 construct: also called human Notch2 protein; R&D Cat. No. 3735-NT-050
T3 sequence (looked up): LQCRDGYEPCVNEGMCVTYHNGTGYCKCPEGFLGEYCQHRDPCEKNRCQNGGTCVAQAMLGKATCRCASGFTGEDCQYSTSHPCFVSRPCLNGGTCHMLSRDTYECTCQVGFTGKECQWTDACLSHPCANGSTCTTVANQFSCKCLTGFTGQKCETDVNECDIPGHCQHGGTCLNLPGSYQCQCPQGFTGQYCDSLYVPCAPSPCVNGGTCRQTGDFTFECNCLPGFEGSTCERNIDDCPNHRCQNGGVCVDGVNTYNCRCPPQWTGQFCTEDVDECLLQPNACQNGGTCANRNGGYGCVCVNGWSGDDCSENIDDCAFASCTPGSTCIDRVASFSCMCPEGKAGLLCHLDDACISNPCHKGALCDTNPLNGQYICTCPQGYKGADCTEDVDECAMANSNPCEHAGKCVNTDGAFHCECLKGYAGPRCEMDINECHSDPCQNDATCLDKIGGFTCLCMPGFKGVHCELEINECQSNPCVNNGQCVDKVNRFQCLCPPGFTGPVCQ
Procedure: as §1

B1: antibody 4F11 (murine monoclonal anti-human Notch3) (antibody, mouse IgG1, kappa, V domains shown)
VH: EVQLVESGGGLVKPGGSLKLSCAASGFAFSSYDMSWVRQTPEKRLEWVAYISRGGGSTYYPDTVKGRFTISRDNAKNTLYLQMSSLKSEDTAMYYCGRHATTAYWYFDVWGAGTTVTVSS
VL: DVVMTQTPLSLPVSLGDQASISCRSSQSLVHTNGNTYLHWYLQKPGQSPKLLIYKVSNRFSGVPDRFSGSGSGTDFTLKISRVEAEDLGVYFCSQSTHVPWTFGGGTKLEIKR
notes: Mouse IgG1 kappa purified from hybridoma; also called mu4F11; murine 4F11
Kd [1]: 0.823 nM | koff [1]: 4.8e-05 s⁻¹ | kon [1]: 70000 M⁻¹ s⁻¹ | binding result [2]: no binding | binding result [3]: no binding
